Reference: article PMC6222663, “Biochemical Characterization of the Rice Cinnamyl Alcohol Dehydrogenase Gene Family” (Molecules : A Journal of Synthetic Chemistry and Natural …, 2018)

Key:
Test in all cases: NADPH consumption at A340, Lineweaver-Burk
Format in all cases: biochemical, Oryza sativa
Details in all cases: 300 μM NADPH, 100 mM sodium/potassium phosphate pH 6.25, 30 °C, substrate 5–50 μM
[1] = substrate: COc1cc(/C=C/C=O)cc(OC)c1O
Excerpt: (§1) NADPH consumption at A340, Lineweaver-Burk on OsCAD7

[2] = substrate: COc1cc(/C=C/C=O)ccc1O
Excerpt: as §1

[3] = substrate: O=C/C=C/c1ccc(O)cc1
Excerpt: as §1

[4] = substrate: O=CC=Cc1ccccc1
Excerpt: as §1

[5] = substrate: COc1cc(/C=C/C=O)cc(OC)c1O; remark: listed apart in the source
Excerpt: (§2) NADPH consumption at A340, Lineweaver-Burk on OsCAD6

[6] = substrate: COc1cc(/C=C/C=O)ccc1O; remark: listed apart in the source
Excerpt: as §2

[7] = substrate: O=C/C=C/c1ccc(O)cc1; remark: listed apart in the source
Excerpt: as §2

[8] = substrate: O=CC=Cc1ccccc1; remark: listed apart in the source
Excerpt: as §2

[9] = substrate: COc1cc(/C=C/C=O)cc(OC)c1O; remark: listed apart in the source
Excerpt: (§3) NADPH consumption at A340, Lineweaver-Burk on OsCAD2

[10] = substrate: COc1cc(/C=C/C=O)ccc1O; remark: listed apart in the source
Excerpt: as §3

[11] = substrate: O=C/C=C/c1ccc(O)cc1; remark: listed apart in the source
Excerpt: as §3

[12] = substrate: O=CC=Cc1ccccc1; remark: listed apart in the source
Excerpt: as §3

B1: OsCAD7 (Oryza sativa Japonica Group) (protein)
chain: MAPTTTATAAAEQAPPPQHTRKAVGLAAHDDSGHLTPIRISRRKTGDDDVAIKVLYCGICHSDLHTIKNEWRNAVYPVVAGHEITGVVTEVGKNVARFKAGDEVGVGCMVNTCGGCESCRDGCENYCSGGVVFTYNSVDRDGTRTYGGYSDAVVVSQRFVVRFPSSAGGGAGAALPLDSGAPLLCAGVTVYAPMRQHGLCEAGKHVGVVGLGGLGHVAVKFARAFGMRVTVISTSPVKRQEALERLGADGFIVSTNASEMKAAMGTMHGIINTASASTSMHSYLALLKPKGKMILVGLPEKPLQIPTFALVGGGKILAGSCMGSISETQEMIDFAAEHGVAADIELIGADEVNTAMERLAKGDVRYRFVVDIGNTLRSD
In the case of B1, the Km [1] is reported as 6.42 ± 1.77 µM, the Vmax [1] is reported as 0.17 µmol/min/mg and the kcat [1] is reported as 0.128 s⁻¹. The kcat/Km [1] was 21200 M⁻¹ s⁻¹, the Km [2] was 11.44 ± 2.16 µM and the Vmax [2] was 0.38 µmol/min/mg. It also gave a kcat [2] of 0.285 s⁻¹, a kcat/Km [2] of 25300 M⁻¹ s⁻¹ and a Km [3] of 2.66 ± 0.49 µM. For the same protein, the Vmax [3] was 0.09 µmol/min/mg, the kcat [3] was 0.0692 s⁻¹ and the kcat/Km [3] was 26300 M⁻¹ s⁻¹. It also gave a Km [4] of 14.11 ± 4.00 µM, a Vmax [4] of 0.25 µmol/min/mg and a kcat [4] of 0.188 s⁻¹. It also gave a kcat/Km [4] of 13700 M⁻¹ s⁻¹.

B2: OsCAD6 (Oryza sativa Japonica Group) (protein)
chain: MEVTPNHTQTVSGWAAMDESGKIVPFVFKRRENGVDDVTIKVKYCGMCHTDLHFIHNDWGITMYPVVPGHEITGVVTKVGTNVAGFKVGDRVGVGCIAASCLDCEHCRRSEENYCDKVALTYNGIFWDGSITYGGYSGMLVAHKRFVVRIPDTLPLDAAAPLLCAGITVYSPMKQHGMLQADAAGRRLGVVGLGGLGHVAVKFGKAFGLHVTVISTSPAKEREARENLKADNFVVSTDQKQMQAMTRSLDYIIDTVAATHSLGPILELLKVNGKLVLVGAPEKPVELPSFPLIFGKRTVSGSMTGGMKETQEMMDICGEHNITCDIEIVSTDRINDALARLARNDVRYRFVINVGGDSKL
For B2, the Km [5] was 10.72 ± 0.47 µM, the Vmax [5] was 0.103 µmol/min/mg and the kcat [5] was 0.0733 s⁻¹. For the same protein, the kcat/Km [5] was 6830 M⁻¹ s⁻¹, the Km [6] was 16.18 ± 4.49 µM and the Vmax [6] was 0.217 µmol/min/mg. For the same protein, the kcat [6] was 0.154 s⁻¹, the kcat/Km [6] was 9670 M⁻¹ s⁻¹ and the Km [7] was 10.88 ± 4.29 µM. For the same protein, the Vmax [7] was 0.11 µmol/min/mg, the kcat [7] was 0.0757 s⁻¹ and the kcat/Km [7] was 7500 M⁻¹ s⁻¹. For the same protein, the Km [8] was 28.25 ± 11.36 µM, the Vmax [8] was 0.439 µmol/min/mg and the kcat [8] was 0.311 s⁻¹. For the same protein, the kcat/Km [8] was 11500 M⁻¹ s⁻¹.

B3: OsCAD2 (Oryza sativa Japonica Group) (protein)
chain: MGSLAAEKTVTGWAARDASGHLTPYNYTLRKTGPEDVVVKVLYCGICHTDIHQAKNHLGASKYPMVPGHEVVGEVVEVGPEVTKYSAGDVVGVGVIVGCCRECHPCKANVEQYCNKRIWSYNDVYTDGRPTQGGFASAMVVDQKFVVKIPAGLAPEQAAPLLCAGLTVYSPLKHFGLMSPGLRGGVLGLGGVGHMGVKVAKSMGHHVTVISSSARKRGEAMDDLGADAYLVSSDAAAMAAAGDSLDYIIDTVPVHHPLEPYLALLKLDGKLILMGVINQPLSFISPMVMLGRKAITGSFIGSMAETEEVLNFCVDKGLTSQIEVVKMDYVNQALERLERNDVRYRFVVDVAGSNIDDADAPPA
For B3, the Km [9] was 8.19 ± 2.62 µM, the Vmax [9] was 52.9 µmol/min/mg and the kcat [9] was 41.2 s⁻¹. For the same protein, the kcat/Km [9] was 5.35e+06 M⁻¹ s⁻¹, the Km [10] was 4.37 ± 0.85 µM and the Vmax [10] was 38.7 µmol/min/mg. It also gave a kcat [10] of 30.1 s⁻¹, a kcat/Km [10] of 7.15e+06 M⁻¹ s⁻¹ and a Km [11] of 9.36 ± 2.50 µM. For the same protein, the Vmax [11] was 17.8 µmol/min/mg, the kcat [11] was 13.9 s⁻¹ and the kcat/Km [11] was 1.54e+06 M⁻¹ s⁻¹. It also gave a Km [12] of 5.30 ± 3.42 µM, a Vmax [12] of 11.6 µmol/min/mg and a kcat [12] of 9.05 s⁻¹. The kcat/Km [12] was 2.37e+06 M⁻¹ s⁻¹.
